Measured values taken from paper doi:10.1101/2020.12.22.423932 (bioRxiv, 2020).

Target: mono-ubiquitin (UniProt P0CG48 1-76)
Assay: MST

B1: human α5 subunit, wild type, recombinant (natural protein)
chain: MFLTRSEYDRGVNTFSPEGRLFQVEYAIEAIKLGSTAIGIQTSEGVCLAVEKRITSPLMEPSSIEKIVEIDAHIGCAMSGLIADAKTLIDKARVETQNHWFTYNETMTVESVTQAVSNLALQFGEEDADPGAMSRPFGVALLFGGVDEKGPQLFHMDPSGTFVQCDARAIGSASEGAQSSLQEVYHKSMTLKEAIKSSLIILKQVMEEKLNATNIELATVQPGQNFHMFTKEELEEVIKDI
modifications: labelled with RED-NHS 2nd Generation dye
Kd: 57.7 µM
